± gives the uncertainty stated by the source.
assay: amyloid nucleation score (Sup35N fusion, yeast selection) (log enrichment); library NNK2; higher = more nucleation; inactive = no reads after selection
How it was run: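 Output and input plasmid inserts were sequenced by Illumina after psi-negative yeast carrying Sup35N fused to peptides of 20 random codons had been induced 24 hours with 100 μM copper sulfate and grown 7 days at 30°C on medium lacking adenine and uracil. The nucleation score is the DiMSum log enrichment of output over input reads, centred on the mode score of non-aggregating sequences. Sequences with under 100 input reads were excluded.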

NPFYYTGLTIPCFVYHRIKS and HKAFVAAVERWAEYLDADVS are within error of each other in amyloid nucleation score: -0.508 ± 0.31 for the first, -0.585 ± 0.63 for the second.

Compared with WGRWSHRWAFHYRACS, ISCSKMRRFWHL is higher in amyloid nucleation score: -0.879 ± 0.39 for the first, 0.587 ± 0.29 for the second.

Compared with GLIYIRDFSFREKGGCYQGL, FHTNCYKIMMSGRHFHVSFD is higher in amyloid nucleation score: -1.29 ± 1.1 for the first, 8.932 ± 0.046 for the second.

Going from LSPVSWYLRITYNAYSMVGQ to WWLYAL, the amyloid nucleation score rises from 1.91 ± 0.11 to 3.74 ± 0.11.

Compared with SNMIHDEIWLMGEDSDF, IHDELSRCRC is lower in amyloid nucleation score: 0.674 ± 0.49 for the first, -0.611 ± 0.63 for the second.

IYWLKTPMLLYWGSPCPRNA and KLGYHLSMIFVFRNVVCPYI are within error of each other in amyloid nucleation score: 0.058 ± 1 for the first, -0.711 ± 1.1 for the second.

Going from LAFRFDVLKWINA to NSVDTTCAL, the amyloid nucleation score rises from -0.263 ± 0.27 to 1.04 ± 0.41.

CALNFCAEVARFLRMLKSLL and CCLENTRVLTVLVSLSMV are within error of each other in amyloid nucleation score: -0.042 ± 0.79 for the first, 0.582 ± 0.35 for the second.

First: PVRSMNPLRRLNESSRFDEE
Second: MEVNLKVKSLCQWGT
The amyloid nucleation score of the first is lower: 1.48 ± 0.61 for the first, 6.791 ± 0.045 for the second.

First: NSGARSTSLVNVWVLYLLDR
Second: FIGCKEHNILNSMKRVD
The amyloid nucleation score of the first is higher: 6.414 ± 0.055 for the first, -0.594 ± 1.1 for the second.

Compared with LFRLSCIALCVGIIIVSDGV, RFILMNLAIVVDFVGS is higher in amyloid nucleation score: -0.33 ± 0.79 for the first, 6.92 ± 0.078 for the second.

Compared with NGRETEFQFTRVDVWNFSVM, DQSTSFFIFYNQTNWSMLFP is higher in amyloid nucleation score: 5.065 ± 0.046 for the first, 6.12 ± 0.056 for the second.

HSTIAVSCY and IWSSHRVSHGVILESGEVWA are within error of each other in amyloid nucleation score: 0.219 ± 1 for the first, -0.25 ± 0.42 for the second.

NVPCGLN and GDVCNVLLAYWVFVTLSFSV are within error of each other in amyloid nucleation score: -0.032 ± 1.1 for the first, 1.5 ± 0.58 for the second.

Going from RDPSTELMISRLARTESCGT to AMYLPWARCSISPTNLIFNL, the amyloid nucleation score falls from 4.94 ± 0.065 to -1.1 ± 0.42.

EALSKLFFYSWERSFHNGEG and YFLGAFTYVFCACHSFCRYW are within error of each other in amyloid nucleation score: 2.11 ± 0.11 for the first, 1.86 ± 0.15 for the second.

First: ESASTVTVCLRRVKVSHR
Second: KISFVALAVDARYGWCLFHY
The amyloid nucleation score of the first is higher: 5.204 ± 0.045 for the first, 0.358 ± 0.24 for the second.

First: VSASFEFRFSSGKWACLWRG
Second: TSLGGWVLERRCLPDAADMR
The amyloid nucleation score of the first is higher: 4.31 ± 0.057 for the first, 1.2 ± 0.31 for the second.

MLSFHLSVVAETMTWWSTRY and WLLWS are within error of each other in amyloid nucleation score: 0.857 ± 0.19 for the first, 0.472 ± 0.26 for the second.

LWRSVAKIVSPN and VQDYKSVRYVGNSRIRVGGS are within error of each other in amyloid nucleation score: -1.74 ± 0.78 for the first, -0.392 ± 0.79 for the second.

First: CYFNARSDSVNVYVV
Second: CLCGYYQSRMDTYYEL
The amyloid nucleation score of the first is higher: -0.029 ± 1.1 for the first, -2.18 ± 0.54 for the second.

RYLNWRVCSNRLPGSEGLWA and WARNEIYRRSTNKWPPMVRG are within error of each other in amyloid nucleation score: 0.323 ± 0.32 for the first, -0.014 ± 0.76 for the second.

VVVNYVFPLSEFMLISDAKC and FCLLPIDQPVTGIFLVR are within error of each other in amyloid nucleation score: 0.833 ± 0.8 for the first, -0.158 ± 0.63 for the second.

First: FLLRVSSSTKTRRSSGVDL
Second: CVDSKWLYFGRWSTQVIDI
The amyloid nucleation score of the first is higher: 3.69 ± 0.095 for the first, -0.196 ± 1 for the second.

First: RMKSFLLNFARNSLCVVRHG
Second: LFRFYCMIANCIVLQN
The amyloid nucleation score of the first is lower: 1.43 ± 0.41 for the first, 4.93 ± 0.045 for the second.

DSWSAVYTNISELAIGGCHG and VQCVMSESMDELYSLVLRCP are within error of each other in amyloid nucleation score: -0.055 ± 1.1 for the first, 0.998 ± 0.28 for the second.

SWGLRTWF and CCAVTVAMECGGIVLVRYCF are within error of each other in amyloid nucleation score: 1.06 ± 0.39 for the first, 0.453 ± 0.66 for the second.

First: LSVSHMCEADLQYRTLFLSK
Second: GAWFQTYWLWCEYMAFIQKL
The amyloid nucleation score of the first is lower: -0.606 ± 0.37 for the first, 1.86 ± 0.17 for the second.

Compared with GKFVLFRMMFNLVNYRSVLQ, HNLEWKNRNQTWSSLTPIVW is higher in amyloid nucleation score: -0.731 ± 0.25 for the first, 0.384 ± 0.44 for the second.

QEQDKSRELKCGGKLYVYEG and CRSCVVSYCGCEYLESLGGK are within error of each other in amyloid nucleation score: 1.04 ± 0.68 for the first, 0.525 ± 0.64 for the second.

Compared with IYVGIHNLILMTSTLGVNKR, IGVLISVGNLSYSTYSSRFI is lower in amyloid nucleation score: 6.06 ± 0.041 for the first, 5.87 ± 0.062 for the second.

Compared with VSENDGVRACCLS, INLNNFLVLLLCKHRVVWKQ is higher in amyloid nucleation score: 0.474 ± 0.44 for the first, 1.48 ± 0.2 for the second.

Going from YRNRVSLRKYRDARYQLCCT to VTWGIIYRLSDG, the amyloid nucleation score rises from 0.247 ± 0.25 to 3.58 ± 0.09.

ANMLRWLNFETFAVSRNLAI and MWVWQEPDVWARLCLDGYEK are within error of each other in amyloid nucleation score: 0.009 ± 0.74 for the first, -0.127 ± 0.45 for the second.

First: NNLHPDYDMGIGYIIDGDPA
Second: AGEYDLIFYLDFYMGNEVIS
The amyloid nucleation score of the first is lower: -0.34 ± 0.62 for the first, 2.29 ± 0.13 for the second.

LGPAYYYHNYLNLRGLSSGM and TVHFLHILIIFRSWSEGMPV are within error of each other in amyloid nucleation score: 0.504 ± 0.74 for the first, -0.345 ± 0.74 for the second.

ESDVSRDRMMALRNMYFCHR and LLFTLGNGGFSLRYKK are within error of each other in amyloid nucleation score: 0.192 ± 0.74 for the first, -0.265 ± 0.23 for the second.

First: GMYLVENLLFRAQCRSTHWQ
Second: TFSLAVVYRFDDAFTLRVGD
The amyloid nucleation score of the first is lower: 1.25 ± 0.37 for the first, 6.135 ± 0.05 for the second.

MVPGDRCPIAKNHFFPKINL and SVCSSRGDAMSGVLPCAGGL are within error of each other in amyloid nucleation score: -0.335 ± 0.45 for the first, 0.124 ± 0.55 for the second.

GMLVELHYGPMY showed an amyloid nucleation score of 0.334 ± 0.56.

In the case of FYLIIDPIPMDCSGIIVNCY, the amyloid nucleation score is reported as “inactive”.
With SYVVGRFNLSRCHLSCGLVS the amyloid nucleation score was “inactive”.
In the case of ISWTPSGAIVVS, the amyloid nucleation score is reported as “inactive”.
For VKVRFFSHVNSMMSLKSIVV, the amyloid nucleation score was “inactive”.
For RSGLSVIYLYY, the amyloid nucleation score was “inactive”.
For HLLRNLLPHKVGSHVHRWLR, the amyloid nucleation score was “inactive”.

From the supplement of paper PMC12042874
